Test results as given in article PMC3539201.

Target: MBP-torsinAΔE (human) (UniProt O14656)
Experiment: pull-down

B1: nesprin-3α (endogenous, mouse fibroblasts) (natural protein)
chain: MTQQPQEDFERSVEDAQAWMKVIQEQLQVNDNTKGPRAALEARLRETEKICQLESEGMVKVELVLRAAEALLATCQEGQKPEILARLRDIKSQWEETVTYMTHCHSRIEWVWLHWSEYLLAQDEFYRWFQKMVVALEPPVELQLGLKEKQWQLSHAQVLLHNVDNQAVLLDRLLEEAGSLFSRIGDPSVDEDAQKRMKAEYDAVKARAQRRVDLLAQVAQDHEQYREDVNEFQLWLKAVVEKVHSCLGRNCKLATELRLSTLQDIAKDFPRGEESLKRLEEQAVGVIQNTSPLGAEKISGELEEMRGVLEKLRVLWKEEEGRLRGLLQSRGDCEQQIQQLEAELGDFKKSLQRLAQEGLEPTVKTATEDELVAQWRLFSGTRAALASEEPRVDRLQTQLKKLVTFPDLQSLSDSVVATIQEYQSMKGKNTRLHNATRAELWQRFQRPLNDLQLWKALAQRLLDITASLPDLASIHTFLPQIEAALTESSRLKEQLAMLQLKTDLLGSIFGQERAATLLEQVTSSVRDRDLLHNSLLQRKSKLQSLLVQHKDFGVAFDPLNRKLLDLQARIQAEKGLPRDLPGKQVQLLRLQGLQEEGLDLGTQIEAVRPLAHGNSKHQQKVDQISCDQQALQRSLEDLVDRCQQNVREHCTFSHRLSELQLWITMATQTLESHQGDVRLWDAESQEAGLETLLSEIPEKEVQVSLLQALGQLVMKKSSPEGATMVQEELRKLMESWQALRLLEENMLSLMRNQQLQRTEVDTGKKQVFTNNIPKAGFLINPQDPIPRRQHGANPLEGHDLPEDHPQLLRDFEQWLQAENSKLRRIITMRVATAKDLRTREVKLQELEARIPEGQHLFENLLRLRPARDPSNELEDLRYRWMLYKSKLKDSGHLLTESSPGELTAFQKSRRQKRWSPCSLLQKACRVALPLQLLLLLFLLLLFLLPAGEEERSCALANNFARSFALMLRYNGPPPT
fold nesprin-3α pulled down relative to MBP-torsinA: 3 fold
